The supplement of paper PMC9112550, “Optimization of the antimicrobial peptide Bac7 by deep mutational scanning” (BMC Biology, 2022)
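Further: peptides expressed intracellularly from a pBAD plasmid library in pooled LB shake-flask culture, induced with 0.3% L-arabinose, DNA abundance read by NGS, three biological replicates, DESeq2 with apeglm shrinkage.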

The sequences below were run on Escherichia coli TOP10 (assay: shrunken log2 fold change of peptide-encoding DNA abundance (4.5 h post-induction vs induction); higher = less antimicrobial activity (less host growth inhibition)). Settings: time post-induction: 4.5 h; library: site-saturation at positions 5, 18, 19, 20.
For RRIRYRPPRLPRPRPRPDFHPRP, the “shrunken log2 fold change” value was -0.695. RRIRSRPPRLPRPRPRPEQPPRP was tested, and the “shrunken log2 fold change” value was 0.591. For RRIRNRPPRLPRPRPRPCLGPRP, the “shrunken log2 fold change” value was -0.219. For RRIRNRPPRLPRPRPRPPQIPRP, the “shrunken log2 fold change” value was 0.013. For RRIRTRPPRLPRPRPRPYIGPRP, the “shrunken log2 fold change” value was -0.119. In the case of RRIRVRPPRLPRPRPRPHMRPRP, the “shrunken log2 fold change” value is reported as -0.0474. RRIRHRPPRLPRPRPRPDWHPRP was tested, and the “shrunken log2 fold change” value was 2.17. With RRIRGRPPRLPRPRPRPQQCPRP the “shrunken log2 fold change” value was 0.13. In the case of RRIRWRPPRLPRPRPRPNTNPRP, the “shrunken log2 fold change” value is reported as -0.294. For RRIRVRPPRLPRPRPRPIGNPRP, the “shrunken log2 fold change” value was -0.194. For RRIRERPPRLPRPRPRPWTVPRP, the “shrunken log2 fold change” value was 0.0377. In the case of RRIRSRPPRLPRPRPRPLGPPRP, the “shrunken log2 fold change” value is reported as 0.0761. For RRIRIRPPRLPRPRPRPSLCPRP, the “shrunken log2 fold change” value was -0.242. RRIRMRPPRLPRPRPRPSPFPRP was tested, and the “shrunken log2 fold change” value was 0.124. For RRIRTRPPRLPRPRPRPNEPPRP, the “shrunken log2 fold change” value was -0.102. In the case of RRIRHRPPRLPRPRPRPMYMPRP, the “shrunken log2 fold change” value is reported as -0.369. With RRIRHRPPRLPRPRPRPGHIPRP the “shrunken log2 fold change” value was -0.282. With RRIRVRPPRLPRPRPRPWWRPRP the “shrunken log2 fold change” value was 1.25. In the case of RRIRHRPPRLPRPRPRPEMMPRP, the “shrunken log2 fold change” value is reported as -0.0229. With RRIRPRPPRLPRPRPRPSMVPRP the “shrunken log2 fold change” value was -0.376. RRIRDRPPRLPRPRPRPKFPPRP was tested, and the “shrunken log2 fold change” value was -0.237. For RRIRWRPPRLPRPRPRPRTHPRP, the “shrunken log2 fold change” value was 0.0534. In the case of RRIRWRPPRLPRPRPRPWPNPRP, the “shrunken log2 fold change” value is reported as 0.0899. RRIRHRPPRLPRPRPRPDNYPRP was tested, and the “shrunken log2 fold change” value was -0.0274. In the case of RRIRYRPPRLPRPRPRPTKGPRP, the “shrunken log2 fold change” value is reported as -0.136. RRIRRRPPRLPRPRPRPKTKPRP was tested, and the “shrunken log2 fold change” value was -0.146. For RRIRDRPPRLPRPRPRPQGHPRP, the “shrunken log2 fold change” value was -0.0748. For RRIRTRPPRLPRPRPRPAQVPRP, the “shrunken log2 fold change” value was -0.112. With RRIRWRPPRLPRPRPRPRELPRP the “shrunken log2 fold change” value was 0.642. In the case of RRIRDRPPRLPRPRPRPISEPRP, the “shrunken log2 fold change” value is reported as -0.0429. RRIRNRPPRLPRPRPRPSENPRP was tested, and the “shrunken log2 fold change” value was -0.296. In the case of RRIRERPPRLPRPRPRPEPPPRP, the “shrunken log2 fold change” value is reported as 0.595. With RRIRARPPRLPRPRPRPFIMPRP the “shrunken log2 fold change” value was -0.507. In the case of RRIRMRPPRLPRPRPRPPDVPRP, the “shrunken log2 fold change” value is reported as 0.00748. For RRIRGRPPRLPRPRPRPIKAPRP, the “shrunken log2 fold change” value was 0.024. For RRIRNRPPRLPRPRPRPFNLPRP, the “shrunken log2 fold change” value was -0.207. With RRIRARPPRLPRPRPRPGDHPRP the “shrunken log2 fold change” value was 0.114. With RRIRPRPPRLPRPRPRPSQVPRP the “shrunken log2 fold change” value was -0.645. With RRIRRRPPRLPRPRPRPASEPRP the “shrunken log2 fold change” value was 0.182. In the case of RRIRHRPPRLPRPRPRPSFYPRP, the “shrunken log2 fold change” value is reported as -1.09. In the case of RRIRFRPPRLPRPRPRPKSCPRP, the “shrunken log2 fold change” value is reported as 0.0245. For RRIRYRPPRLPRPRPRPMQPPRP, the “shrunken log2 fold change” value was -0.0124. For RRIRYRPPRLPRPRPRPIAVPRP, the “shrunken log2 fold change” value was -0.321. With RRIRLRPPRLPRPRPRPEVYPRP the “shrunken log2 fold change” value was 0.0314. For RRIRVRPPRLPRPRPRPDAKPRP, the “shrunken log2 fold change” value was 0.0516. In the case of RRIRCRPPRLPRPRPRPYFLPRP, the “shrunken log2 fold change” value is reported as -0.823. In the case of RRIRWRPPRLPRPRPRPNYFPRP, the “shrunken log2 fold change” value is reported as -0.167. In the case of RRIRMRPPRLPRPRPRPWLWPRP, the “shrunken log2 fold change” value is reported as 0.0882. RRIRKRPPRLPRPRPRPNWEPRP was tested, and the “shrunken log2 fold change” value was 0.0515. With RRIRQRPPRLPRPRPRPVHLPRP the “shrunken log2 fold change” value was 0.00299. With RRIRMRPPRLPRPRPRPCKLPRP the “shrunken log2 fold change” value was -0.00365. With RRIRSRPPRLPRPRPRPHRCPRP the “shrunken log2 fold change” value was -0.209. With RRIRLRPPRLPRPRPRPARCPRP the “shrunken log2 fold change” value was 0.651. In the case of RRIRHRPPRLPRPRPRPFRMPRP, the “shrunken log2 fold change” value is reported as -0.625. RRIRARPPRLPRPRPRPVVPPRP was tested, and the “shrunken log2 fold change” value was 0.496. For RRIRVRPPRLPRPRPRPYFRPRP, the “shrunken log2 fold change” value was -0.153. RRIRWRPPRLPRPRPRPVLVPRP was tested, and the “shrunken log2 fold change” value was 0.298. With RRIRTRPPRLPRPRPRPQQEPRP the “shrunken log2 fold change” value was 0.0173. In the case of RRIRYRPPRLPRPRPRPSLEPRP, the “shrunken log2 fold change” value is reported as -0.0996. For RRIRPRPPRLPRPRPRPNYAPRP, the “shrunken log2 fold change” value was -0.0849. In the case of RRIRKRPPRLPRPRPRPWHKPRP, the “shrunken log2 fold change” value is reported as -0.145. With RRIRFRPPRLPRPRPRPRAHPRP the “shrunken log2 fold change” value was 0.00718. RRIRDRPPRLPRPRPRPWRLPRP was tested, and the “shrunken log2 fold change” value was -0.264. For RRIRERPPRLPRPRPRPALLPRP, the “shrunken log2 fold change” value was -0.23. RRIRFRPPRLPRPRPRPLGMPRP was tested, and the “shrunken log2 fold change” value was -0.0132. RRIRTRPPRLPRPRPRPQHIPRP was tested, and the “shrunken log2 fold change” value was -0.554. In the case of RRIRCRPPRLPRPRPRPGRPPRP, the “shrunken log2 fold change” value is reported as 0.106. With RRIRGRPPRLPRPRPRPCPKPRP the “shrunken log2 fold change” value was 0.193. With RRIRPRPPRLPRPRPRPNWHPRP the “shrunken log2 fold change” value was -0.0472. In the case of RRIRKRPPRLPRPRPRPDAVPRP, the “shrunken log2 fold change” value is reported as 0.698. With RRIRCRPPRLPRPRPRPSGKPRP the “shrunken log2 fold change” value was -0.327. For RRIRIRPPRLPRPRPRPYHIPRP, the “shrunken log2 fold change” value was -0.0511. RRIRDRPPRLPRPRPRPVQMPRP was tested, and the “shrunken log2 fold change” value was -0.0835. With RRIRFRPPRLPRPRPRPINIPRP the “shrunken log2 fold change” value was -0.113. RRIRVRPPRLPRPRPRPWTTPRP was tested, and the “shrunken log2 fold change” value was 0.115.
